Data published in the DeepSol protein solubility set.

Test: soluble on expression in E. coli; label from the status in PepcDB or PDB records

Sequence | soluble on expression in E. coli
MEQKKKKNIGFNIIKDDPTDGHRGFGAGALSLENVSPVIIDVEAGEAFVDMGAMHARSAVERGIKFLPDRSAVPNGKPYWIVWVTIERREDGPYYAGVTACEMTIDREARRGYKLLPEHVNRLDKSLKRHIIVDHMDAKSKRVLADFLKGHDIGMWNRSSDELKKGLEGEL | not soluble
MAHHHHHHMTELLSAGEVQHPCGWAFAFPFVKRVPPAKLVRLLGTATLLDRIRENDPTLRSVRLDYELLPREEIMQALLGNNTISSVVIARVIPRNSTGTDFARFLESLYHLPLRSVQVQDGEKLPSSYLNHLLYLVEYCSGVGKACKWTDGKCYAGADLNTGNTTTEINDAEEFNGNNSREDVDSEVLDYKRGAVLEFVDFSGCRLTVRQAQWLGDILFHRRCTLRHVNACECRLGNGGVRALLRRVNTSPRLKAASIAEGSVVPLDMIELRWNGVTEDESIRNFVDVVERSPDCWTCMTVYGNYISPHMYTRCEAQVVKAKRLMEEERLKRREIPTNVEVAQPDGRLSSEKGTSCSPRRYFVDLLTSVAGEVDFVCPSLRAVSSLLHEEP | not soluble
MSDVSLKLSAKDIYEKDFEKTMARGYRREEVDAFLDDIIADYQKMADMNNEVVKLSEENHKLKKELEELRLRVATSRPQDNKSFSSNNTTTNTSSNNVDILKRISNLEKAVFGK | not soluble
MAHHHHHHMDGEALFNHIASCSETGYLTMEDFVRWMSETATDKGQKNYESIDVDERAVMRKALLQLCERLEARCLNSLQMFRLASTMPRAYTERRADIYSLANPHRDALVTPVQLRRCIEEVLGGNPSPREMDALLSFFFPQLPLEEYRSRRDGDLEHALDLKAFQKKYHEMNKLLMLSEPSKQQQQTQQRQQE | soluble
MSNKTKLKDNKELLYQVVLSYKVSHNYPLKAFLIECKNKLNECIDMIWNNIKYTKKDNPKLPKSNEFKRELRNKLLENWNYASHYIDGIIKTSYSILQSWASNYKRGYRTKTKPIAKRLFVRVKTTLIKYDKEKGEIRITIKPRKDYLILNIKNEWFFDKVKNLTIGEIILKEKETFLTFKDNLNYSDKGMIVGVDSNLRSLDLFHPIEGWTRVDLTELHRIKEVYDRKIDFLKKLLKKFPLRAMRKINRLFERRRNRVKDFLHKLTIQLSRLFPDAIFVFEDLNKRRMYKSKYFNRKIDRVNWNGLIEKISYKTIVILVNPAYTSTICPICGSRMESQEGQVVYCSNCLNSFNRQLVGCYNIFKRGLGNIKEIMGGSGVTTTGVEVSFGKLMTPNPNVIYIVDYNGKYFNEIA | soluble
MGSDKIHHHHHHMNNINDSSAIHITPETFVKQIRSLGRYNFPEPALVDPDGIGIVGIGGNLAPETLISAYAQGLFPWFNDDEPIAWWCPEPRCVMQPTDYQPSKSLRKQANNARWQLTLNQAFNEVIHACSLPRSNGLPEGEHTWIHDDMIEAYNELHAQGFAHSVEVWDDQGQLVGGLYGLKIGSIYFGESMFHIASNASKLAFWGLMRLCTQSNVTLVDCQLPNEHLMSLGAITLSRTEFLTQLDTLISNGSDAWHKNSHRPLAVSLLGNLQPWQLNP | not soluble
MSLAAEGKAIAKVNDLVIFVPYVVPGDVVDLQIKRKKNKYAEAEAVKFHELSPVRAVPFCQHYGVCGGCKWQVLPYSEQIRYKQKQVEDNLRRIGKIELPEISPILGSAKTEFYRNKLEFTFSNKRWLTNDEVRQDVKYDQMNAVGFHIPGAFDKVLAIEKCWLQDDISNRIRNAVRDYAYEHDYSFINLRTQEGMLRNLIIRTSSTGELMVIVICKITEDHEMELFKQLLQFIADSFPEITSLLYIINNKCNDTINDLDVHVFKGKDHMFEEMEGLRFKVGPKSFYQTNSEQAYNLYKIAREFAGLTGKELVYDLYTGTGTIANFVSRQARQVIGIEYVPEAIEDAKVNAEINEIKNALFYAGDMKDMLTQEFINQHGRPDVIITDPPRAGMHQDVVDVILFAEPKRIVYVSCNPATQARDLQLLDGKYKVKAVQPVDMFPHTHHVENVVLLELREGHHHHHH | soluble
MMETEVAVVPLTPLDIHNKEFSRGFRGYDEDEVNEFLDQVIKDYEMLIREKKQLEEKVAELTEKLNYFANIEETLNKSILVAQEAAEEVKRNAQKEAKLIIKEAEKNAERIISDALAKSRKIALEIEELKRQSKVFRARFRMLVEAQLDMINSRDWDELMEYEAPDLEEGAREPLSQP | not soluble
MNAAQVQALIRMGLPMAEDIDFRVERLDERHALARIPFHGKLVRPGGTLSGPTIMALADAAMYAVILGRLGAVEMAVTSNLNINFLSKPRPEDLLAEASILKLGRRQVVCEVGVFSQSNEEDLVAHVTGTYALPLLEHHHHHH | soluble
MGSDKIHHHHHHMKDLLTRRFVLNSKEVREGDVFVAVKGKRFDGHDFIDEALRNGAYAIIAERKTVNSDRIFLVESSVDTLAKLAREKLGNFSGTVVGVTGSSGKTTTKEILYNLLKNKRSVFKTPGNMNTEYGLPLSILNDYKGEEILVLEMAASRPGDIAHLCKIAPPDVAVLLNVGSAHLEFFGTRERIMETKMEIIKHSKENAIAVTLFDDPDLRKEVPRYRNTLFFGKEGGDSVLKDWWYYEGSTIAEFEAFDSLFTVKLSGYWNGGQLLNIAASLCVMRTLGETVDIFDLASLKTVPGRFNVREKKGVLIVDDTYNASPEAFQTSIEALLRFPGKKFAVVGAMKELGERSKEFHEELGERLNVLDGVYVFLSEPEAEWIKSKKIILKSDDPEKIAKDLATRVKKGDVVLFKASRAVRIERVLEM | not soluble
MYKILEKKEIAMRNTWYKVYAPHVAKKVQPGQFVIVRAFPNGERIPLTPVMWDREEGWIVLIVFTRGKTTMRMAVELKEGDSLLNVAGPLGTPVPMEKFGKILAIGAYTGIVEVYPIAKAWQEIGNDVTTLHVTFEPMVILKEELEKAVTRHIVEPVPLNPNQDFLANMKNVSQRLKEKVRELLESEDWDLVFMVGPVGDQKQVFEVVKEYGVPMKVDLHPIMVDGTGMCGACRVTVGGEVKFACVDGPEFDAYQVDWDELIHRVGFYAKLEKLALEKYMEELKAKGVILEHHHHHH | not soluble
MENEKIWIKELKEKRLAYGVSQNKLAVASHITRPYLSDIETGKAVPTQQVKEDLLNALERFNPDNPLEMLFDYVRIRFPTNDVAQIIGEVLRLNMDYMLHEDFGYYSYPEHYRFGDIVVLVSHDVSKGVLLELKGKGCRQFENFLLAQHRSWYDFFQDCMEHKGIFKRLDLAINDKTGILNIPDLAKKCKQEECISVFRSFKNYRSGELVHRDEKPYMGNTLYIGSLKSEVYFCIYEKDYEQYVKNDVPLEDAEVKNRFEIRLKNDRATQAMKDLLAHQQAEKTAFEIINRYIRFADKDDTKRRSDWKTNERWEWFIGKNRGALRLTTQPEPYSFERTLNWLHHQVAPTLKIASILDVLNGTTIISTMIQEAKLTEKHEKLIEQQHLAMEDLIT | not soluble
MPEPDKQATRKKRTTSSLTDSTVFDPAKQVLWSRPGYLVRRLNQIHYALFYEECKTQNVTPVQYGVLTALSLSPWLDQTAIGMELGLDRTTTADVIKRLQERGLVERRVNPNDKRSRQAVITQEGLRIMGLLQGGMARAQQRLLEPLSPRNREIFMKLLSTLVDANNQYSRTALKAM | not soluble
MGSDKIHHHHHHMASLTANIQTQEERKRSLPAQLVVSLVIAMSLWSKDSMRDVLKNLIDGLSEAWLKVGKYWRVACKSAITQARQRLGARVMCKLFHQLVKPMATQETLGAFLQELRIVVIDGSCFDVPDSDENARVFGRPGSRPGTKAAFPKVRLVILVEAGTHIIFDALMWPYRIGERVRALRLLRSVTPGMLLMWDRGLHSYAMVQATVTKGCDYLGRIPANIKFIAEKPLEDGSYLSWIYPSGKLRKKASQPILVRIIEYTIEHPDNPTEQLTYRLITSLLNIEKFPAELLAREYHQRWEVENTIDELKIHLLGRKTHVRSQKPREVVQEVYAWLLGHWTVRLLMFQAATSAGVAPLRLSFTGTLRVIRRAVPKFQRLNSQDLPLFLSG | not soluble
MGKNEILWGIAPIGWRNDDMPEIGAGNTLQHLLSDIVVARFQGTEVGGFFPEPAILNKELKLRNLRIAGKWFSSFILRDGLGEAAKTFTLHCEYLQQVNADVAVVSEQTYSVQSLEKNVFTEKPHFTDDEWERLCEGLNHLGEIAAQHGLKLVYHHHLGTGVQTAEEVDRLMAGTDPAHVHLLYDTGHAYISDGDYMGMLEKHIGRIKHVHFKDARLNVMEQCRLEGQSFRQSFLKGMFTVPGDGCIDFREVYQLLLKHSYSGWIVIEAEQDPDVANPLEYALIARNYIDQQLLDLAMGHHHHHHSH | soluble
MGSDKIHHHHHHMERFCCVNQINYIQMNPLEAKFKTSALRSWKTDQADAHKLACLGPTLKQTDNLPIHELIFFELRERVRFHLEIENEQNRLKFQILELLHQTFPGLERLFSSRYSIIALNIAEIFTHPDMVLDIDKEVLITHIFNSTDKGMSMDKATKYALQLRVIAQESYPNVDRHSFLVEKLRLLIQQLKQSIHHPKQLDDAMIQLAQQLDYFENIHSIPGIGKLSTAMIIGEIGDIKRFKSNKQLNAFVGIDIKRYQSGHTHCRDTINKRGNKKARKLLFWVIMNIIRGQHHYDNHVVDYYYKLRKQPNEKPHKTAIIACINRLLKTIHYLVMNHKLYDYQMSPH | not soluble
MNILGIETSCDETSAAVLSDGSVRSNIVSSQRCHTDFGGVVPELASREHERLIVSIVDAAITEANIAKNDLDVIAATAGPGLIGAVMVGLCFAEGLAWALGKPFVPVNHVEAHIFSPFISDEPGHREPKGDFVSLTVSGGHTLLSVVRQDLGYEVIGRTIDDAAGEAFDKTGKMLGLGYPAGPVIDRLAREGDSDFHRFPRALTASSQTSKSYRGNFDFSFSGLKTSVRTWLEAHDSEYVQKHQADLAASIQSAIVEVLVEKSVAAALLHKVNAISVAGGVSANSGLRSAMQAACDRHGIELFIPALAYSTDNAAMIATMAQLMIARGKYRIEDNSYGVAPFARFEAARKGAR | not soluble
MDLTLIIDNYDSFVYNIAQIVGELGSYPIVIRNDEISIKGIERIDPDRLIISPGPGTPEKREDIGVSLDVIKYLGKRTPILGVCLGHQAIGYAFGAKIRRARKVFHGKISNIILVNNSPLSLYYGIAKEFKATRYHSLVVDEVHRPLIVDAISAEDNEIMAIHHEEYPIYGVQFHPESVGTSLGYKILYNFLNRV | soluble
MGSDKIHHHHHHMTAMRGDGGRVLHTGFGVVRGVLFDIDDTLVDLEYAMTTALRDVSEHLLPGLDQAGWEKFGRIFTHETTHFYDRYLAGELTFNEQRLLRGRAALGHFGVELEEGEESHAWVTSYAALQHGYVRAFEDVAPVLDALDAAGIPYGAVSNNVHDYQRVKLDAAGLQRITVLVGTDTLGVPKPDPAIYLEGVRLLGSSAAETLYVGDNRLLDAEGSTAAGLLGVWLNRSGETESAFAGHQVGSLAELLG | not soluble
SENLYFQSKVTVGPDPSLVYRPDVDPEVAKDKASFRNYTSGPLLDRVFTTYKLMHTHQTVDFVRSKHAQFGGFSYKKMTVMEAVDLLDGLVDESDPDVDFPNSFHAFQTAEGIRKAHPDKDWFHLVGLLHDLGKVLALFGEPQWAVVGDTFPVGCRPQASVVFCDSTFQDNPDLQDPRYSTELGMYQPHCGLDRVLMSWGHDEYMYQVMKFNKFSLPPEAFYMIRFHSFYPWHTGRDYQQLCSQQDLAMLPWVREFNKFDIYTKCPDLPDVDKLRPYYQGLIDKYCPGILSW | soluble
